The source of these data is patent US20230374104A1 (SEATTLE CHILDREN S HOSPITAL DBA SEATTLE CHILDREN S RESEARCH …, published 2023).

A word on the Kd: it is the concentration at which binding is half-saturated.

In assay [1] the target is soluble PD-L1 (UniProt Q9NZQ7). The experiment in a line: cell binding (H9 cells); printed as pg/ul.
Assay [2] addresses T1, soluble PD-L1 (UniProt Q9NZQ7 19-238, limits assumed).
T1 construct: also called PD1-L1
Description: competitive binding assay: mixed H9 cells expressing PD1(WT):CD28 (cell trace violet positive) and PD1(A99L):CD28 (negative), incubated with soluble PD-L1 (0.02 pg/uL to 20 ng/ul) for 30 min, streptavidin-APC, flow cytometry. How it is done: A competitive binding assay was performed to determine relative binding affinity between PD1 chimeric polypeptides, in particular PD1(WT):CD28 polypeptide, and the PD1(A99L):CD28 polypeptide.
A population of H9 cells containing PD1(WT):CD28 polypeptide were labeled with cell trace violet were mixed with a population of H9 cells containing PD1(A99L):CD28 polypeptide. The cells were then incubated with soluble PD-L1 (0.02 pg/uL to 20 ng/ul) for 30 min and then stained with streptavidin-APC. The two populations were separated out by flow analysis into cell trace violet positive (H9 cells containing PD1(WT):CD28 polypeptide) and cell trace violet negative (H9 cells containing PD1(A99L):CD28 polypeptide) populations. The populations were analyzed for APC positivity.
(A flow cytometer gives signals particle by particle.)

soluble PD-L1 (UniProt Q9NZQ7), sequence (Q9NZQ7 19-238): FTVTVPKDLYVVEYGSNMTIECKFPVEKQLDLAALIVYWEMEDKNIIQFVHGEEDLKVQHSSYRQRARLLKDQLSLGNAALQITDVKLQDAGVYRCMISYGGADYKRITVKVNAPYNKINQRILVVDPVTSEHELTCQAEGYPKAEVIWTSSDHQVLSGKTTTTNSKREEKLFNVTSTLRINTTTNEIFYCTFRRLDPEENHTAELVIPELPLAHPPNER
T1 sequence (Q9NZQ7 19-238 limits assumed): as the sequence (Q9NZQ7 19-238) above

Regarding PD1(A99L):CD28 polypeptide, the Kd in the assay with soluble PD-L1 [1] stood at 0.0033 µg/mL.
Turning to PD1(WT):CD28 polypeptide, the equilibrium dissociation constant (Kd) with soluble PD-L1 [1] was found to be 0.029 µg/mL.

B1: PD1(A99L):CD28 polypeptide (receptor)
chain: LDSPDRPWNPPTFSPALLVVTEGDNATFTCSFSNTSESFVLNWYRMSPSNQTDKLAAFPEDRSQPGQDCRFRVTQLPNGRDFHMSVVRARRNDSGTYLCGAISLAPKLQIKESLRAELRVTERRAEVPTAHCPSPLFPGPSKPFWVLVVVGGVLACYSLLVTVAFIIFWVRSKRSRLLHSDYMNMTPRRPGPTRKHYQPYAPPRDFAAYRS
notes: Position 99 is not counted from the initiating Met of the encoded open reading frame, where the changed alanine appears to lie near position 132
In the case of B1, the “fold binding affinity relative to PD1(WT):CD28 polypeptide” value in the assay with soluble PD-L1 [2] was about 9 fold.
